B1: CBL-interacting serine/threonine-protein kinase 24 (Arabidopsis thaliana (Mouse-ear cress)), Q9LDI3 (parent)
chain: MTKKMRRVGKYEVGRTIGEGTFAKVKFARNTDTGDNVAIKIMAKSTILKNRMVDQIKREISIMKIVRHPNIVRLYEVLASPSKIYIVLEFVTGGELFDRIVHKGRLEESESRKYFQQLVDAVAHCHCKGVYHRDLKPENLLLDTNGNLKVSDFGLSALPQEGVELLRTTCGTPNYVAPEVLSGQGYDGSAADIWSCGVILFVILAGYLPFSETDLPGLYRKINAAEFSCPPWFSAEVKFLIHRILDPNPKTRIQIQGIKKDPWFRLNYVPIRAREEEEVNLDDIRAVFDGIEGSYVAENVERNDEGPLMMNAFEMITLSQGLNLSALFDRRQDFVKRQTRFVSRREPSEIIANIEAVANSMGFKSHTRNFKTRLEGLSSIKAGQLAVVIEIYEVAPSLFMVDVRKAAGETLEYHKFYKKLCSKLENIIWRATEGIPKSEILRTITF
partner: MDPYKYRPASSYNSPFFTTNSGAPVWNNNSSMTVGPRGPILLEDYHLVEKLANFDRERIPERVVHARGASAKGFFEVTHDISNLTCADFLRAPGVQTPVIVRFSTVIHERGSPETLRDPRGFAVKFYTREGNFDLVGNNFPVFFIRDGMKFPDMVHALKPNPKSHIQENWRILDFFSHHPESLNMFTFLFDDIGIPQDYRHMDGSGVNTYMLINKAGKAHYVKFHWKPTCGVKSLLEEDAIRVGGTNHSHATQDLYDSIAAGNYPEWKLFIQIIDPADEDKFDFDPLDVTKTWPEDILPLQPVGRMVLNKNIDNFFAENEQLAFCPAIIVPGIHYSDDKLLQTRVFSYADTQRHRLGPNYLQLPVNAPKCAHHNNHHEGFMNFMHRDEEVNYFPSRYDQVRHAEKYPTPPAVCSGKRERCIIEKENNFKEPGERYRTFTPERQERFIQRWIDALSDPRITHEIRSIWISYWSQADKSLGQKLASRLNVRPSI

Variants of: B1
Details: with cata2_arath CAT2, P25819

| effect of a mutation on the interaction | Variant |
| --- | --- |
| increasing interaction | K40N |
